Substitutions are numbered along the chain they refer to. Names may count otherwise.
T1: human beta-Klotho (human, UniProt Q86Z14 1-1044)
T1 sequence (looked up): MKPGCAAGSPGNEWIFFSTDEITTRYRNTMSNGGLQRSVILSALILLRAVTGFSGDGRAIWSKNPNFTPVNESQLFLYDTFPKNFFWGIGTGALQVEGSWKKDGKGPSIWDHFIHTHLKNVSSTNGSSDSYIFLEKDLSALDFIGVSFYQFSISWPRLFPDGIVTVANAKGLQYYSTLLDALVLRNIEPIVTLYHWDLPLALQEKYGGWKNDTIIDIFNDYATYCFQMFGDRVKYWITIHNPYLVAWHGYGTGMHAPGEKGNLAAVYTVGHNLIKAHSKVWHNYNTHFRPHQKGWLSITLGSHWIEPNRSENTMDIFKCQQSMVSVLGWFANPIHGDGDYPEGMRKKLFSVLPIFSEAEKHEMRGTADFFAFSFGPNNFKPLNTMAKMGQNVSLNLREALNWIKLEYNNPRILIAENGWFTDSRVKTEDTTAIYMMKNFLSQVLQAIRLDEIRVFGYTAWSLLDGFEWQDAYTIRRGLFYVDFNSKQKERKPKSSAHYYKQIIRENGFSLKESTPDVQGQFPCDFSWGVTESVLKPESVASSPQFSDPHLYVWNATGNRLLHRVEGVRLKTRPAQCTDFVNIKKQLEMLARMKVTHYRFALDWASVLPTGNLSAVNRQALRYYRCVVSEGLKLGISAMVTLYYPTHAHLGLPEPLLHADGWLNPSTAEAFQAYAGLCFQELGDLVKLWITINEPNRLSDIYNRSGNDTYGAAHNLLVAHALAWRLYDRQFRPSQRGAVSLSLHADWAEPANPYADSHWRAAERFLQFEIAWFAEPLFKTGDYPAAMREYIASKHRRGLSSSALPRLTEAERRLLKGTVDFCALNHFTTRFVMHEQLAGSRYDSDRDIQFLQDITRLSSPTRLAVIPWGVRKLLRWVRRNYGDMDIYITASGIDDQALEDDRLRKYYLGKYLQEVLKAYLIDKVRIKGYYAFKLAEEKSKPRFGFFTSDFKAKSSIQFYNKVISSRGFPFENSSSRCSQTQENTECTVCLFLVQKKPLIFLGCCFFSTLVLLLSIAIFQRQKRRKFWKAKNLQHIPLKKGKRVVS

B1: (K56R, K59R, K69R, N121Q, K122R, L166F, S167G, M168L, 169aT, P171L, S172E, Q173A, G174V, Y179F, A180E, S181R) FGF21 (ligand)
chain: HPIPDSSPLLQFGGQVRQRYLYTDDAQQTEAHLEIREDGTVGGAADQSPESLLQLRALRPGVIQILGVRTSRFLCQRPDGALYGSLHFDPEACSFRELLLEDGYNVYQSEAHGLPLHLPGQRSPHRDPAPRGPARFLPLPGLPPALPEPPGILAPQPPDVGSSDPFGLVTGLEAVRSPSFER
B2: (K56R, K59R, K69R, D102E, N121Q, K122R, M168L) GSGSG-FGF21 (ligand)
chain: GSGSGHPIPDSSPLLQFGGQVRQRYLYTDDAQQTEAHLEIREDGTVGGAADQSPESLLQLRALRPGVIQILGVRTSRFLCQRPDGALYGSLHFDPEACSFRELLLEEGYNVYQSEAHGLPLHLPGQRSPHRDPAPRGPARFLPLPGLPPALPEPPGILAPQPPDVGSSDPLSLVGPSQGRSPSYAS
B3: [-5G, -4S, -3G, -2S, -1G, K56R, 59R, 69R, 102E, 121Q, 122R, 168L] FGF21 derivative of Example 52 (ligand)
chain: B2 chain
modifications: N-alpha-1-[2-(2-{2-[2-(2-{2-[(S)-4-carboxy-4-(17-carboxy-heptadecanoylamino)-butyrylamino]-ethoxy}-ethoxy)-acetylamino]-ethoxy}-ethoxy)-acetyl] on the N-terminal alpha amino group
B4: (-5G, -4S, -3G, -2S, -1G, K56R, 59R, 69R, 102E, 121Q, 122R, 168L) FGF21 derivative of Example 55 (ligand)
chain: B2 chain
modifications: N-alpha-1-[4-(16-1H-tetrazol-5-yl-hexadecanoylsulfamoyl)-butyryl] on the N-terminal alpha amino group
B5: (K56R, K59R, K69R, K122R) FGF21 (ligand)
chain: HPIPDSSPLLQFGGQVRQRYLYTDDAQQTEAHLEIREDGTVGGAADQSPESLLQLRALRPGVIQILGVRTSRFLCQRPDGALYGSLHFDPEACSFRELLLEDGYNVYQSEAHGLPLHLPGNRSPHRDPAPRGPARFLPLPGLPPALPEPPGILAPQPPDVGSSDPLSMVGPSQGRSPSYAS
B6: (K56R, 59R, 69R, 122R, 166F, 167G, 168L, 169aT, 171L, 172E, 173A, 174V, 179F, 180E, 181R) Ser-FGF21 derivative of Example 50 (ligand)
chain: SHPIPDSSPLLQFGGQVRQRYLYTDDAQQTEAHLEIREDGTVGGAADQSPESLLQLRALRPGVIQILGVRTSRFLCQRPDGALYGSLHFDPEACSFRELLLEDGYNVYQSEAHGLPLHLPGNRSPHRDPAPRGPARFLPLPGLPPALPEPPGILAPQPPDVGSSDPFGLVTGLEAVRSPSFER
modifications: N-alpha-1-[2-(2-{2-[2-(2-{2-[(S)-4carboxy-4-(17-carboxy-heptadecanoylamino)-butyrylamino]-ethoxy}-ethoxy)-acetylamino]-ethoxy}-ethoxy)-acetyl] on the N-terminal alpha amino group
B7: (-1S, 71C, 166F, 167G, 168L, 169aT, 171L, 172E, 173A, 174V, 179F, 180E, 181K) FGF21 derivative of Example 18 (ligand)
chain: B6 chain with R57K, R60K, R70K, S72C, R123K, R183K
modifications: S-71-({2-[2-(2-{2-[2-(2-{2-[(S)-4-carboxy-4-(17-carboxy-heptadecanoylamino)-butyrylamino]-ethoxy}-ethoxy)-acetylamino]-ethoxy}-ethoxy)-acetyl-amino]-ethylcarbamoyl}-methyl) on the thiol of Cys71
B8: (S71C, L166F, S167G, M168L, 169aT, P171L, S172E, Q173A, G174V, Y179F, A180E, S181K) Ser-FGF21 (ligand)
chain: B6 chain with R57K, R60K, R70K, S72C, R123K, R183K
B9: (-1A, 71C, 121Q, 166F, 167G, 168L, 169aT, 171L, 172E, 173A, 174V, 179F, 180E, 181K) FGF21 derivative of Example 17 (ligand)
chain: B6 chain with S1A, R57K, R60K, R70K, S72C, N122Q, R123K, R183K
modifications: S-71-({2-[2-(2-{2-[2-(2-{2-[(S)-4-carboxy-4-(17-carboxy-heptadecanoylamino)-butyrylamino]-ethoxy}-ethoxy)-acetylamino]-ethoxy}-ethoxy)-acetylamino]-ethylcarbamoyl}-methyl) on the thiol of Cys71
B10: Gly-FGF21 (ligand)
chain: GHPIPDSSPLLQFGGQVRQRYLYTDDAQQTEAHLEIREDGTVGGAADQSPESLLQLKALKPGVIQILGVKTSRFLCQRPDGALYGSLHFDPEACSFRELLLEDGYNVYQSEAHGLPLHLPGNKSPHRDPAPRGPARFLPLPGLPPALPEPPGILAPQPPDVGSSDPLSMVGPSQGRSPSYAS
B11: Gly-FGF21-M168L (ligand)
chain: B10 chain with M169L
B12: (Q15F, K56R, K59R, K69R, D102T, N121Q, K122R, Y179F, A180E, S181R) Gly-FGF21 (ligand)
chain: B10 chain with Q16F, K57R, K60R, K70R, D103T, N122Q, K123R, Y180F, A181E, S182R

Molecular target: T1, human beta-Klotho
Assay: cell-based or functional assay

| pERK-HEK293-Beta-klotho without HSA [EC50 (nM)] Median Value [nM] | Binder |
| --- | --- |
| 3 | B1 |
| 6.6 | B2 |
| 11 | B3 |
| 2 | B4 |
| 12 | B5 |
| 2 | B6 |
| 2.5 | B7 |
| 2.2 | B8 |
| 3 | B9 |
| 2.1 | B10 |
| 1.8 | B11 |
| 75 | B12 |

Source: patent publication US20100216715A1 (Novo Nordisk, published 2010)
